Test results taken from paper PMC12647727.

Biological target: FcRn β2-microglobulin complex (UniProt P55899)
Assay: BLI

- Kd: 6.2 nM
Substance: single-chain IgG atezolizumab (scAtezo) (antibody)
